Results reported in patent US20180002412A1 (UNIVERSITY OF CONNECTICUT, published 2018).

Legend:
[1] = biological target: T1, Clathrin heavy chain 1 (UniProt Q00610 2-1675); assay: immunoprecipitation from MDA-MB-231 1% Triton X-100 lysate, gel band identified by LC-MS/MS
T1 construct: Endogenous protein, immunoprecipitated from cell lysate and stained in permeabilized MCF7 cells; also called CLTC
Procedure: FIGS. 3 A and B show immunoprecipitation of respective target antigens by HCAb1 and HCAb2. 20 μg of HCAb1 and HCAb2 were used to immunoprecipitate the target antigens from 1% Triton X-100 (A) or 1% Triton X-100+0.1% SDS (B) MDA-MB-231 lysates. The immunoprecipitated proteins were run on a reducing SDS-PAGE gel and the proteins in the gel were stained with SYPRO® Ruby stain. * indicates the specific band for HCAb1 (A) and HCAb2 (B).
In order to determine the antigens recognized by the HCAbs, we performed immunoprecipitation of the antigens followed by protein identification using mass spectrometry. We chose MDA-MB-231 cell lysates since the respective target antigens for both HCAb1 (FIG. 1L) and HCAb2 (FIGS. 1C, 1I and 1O) were abundant in MDA-MB-231 cells. The immunoprecipitated proteins were run on a reducing SDS-PAGE gel and visualized using SYPRO® Ruby stain. […] Furthermore, these buffer conditions were unfavorable for HCAb1 to immunoprecipitate the band seen previously (FIG. 3A) in the buffer lacking SDS.
The specific gel bands (*) observed in FIGS. 3A and 3B were excised and the tryptic peptides were analyzed by mass spectrometry. Peptides identified from the analysis were used to search the SwissProt database to obtain the list of target proteins. Tables 1 and 2 list the top five proteins identified from the HCAb1 and HCAb2 immunoprecipitated bands, respectively. […]

[2] = biological target: T2, HSP90 (endogenous, from MDA-MB-231 cells and MDA-MB-231 xenograft tumor lysates) (human, UniProt P08238 2-724); assay: immunoprecipitation from MDA-MB-231 xenograft tumor lysates, immunoblot with commercial HSP90 antibody
T2 construct: The isoform is not resolved in these experiments; HSP90α (P07900) may also be present; also called cell surface HSP90
T2 sequence (P08238 2-724 limits assumed): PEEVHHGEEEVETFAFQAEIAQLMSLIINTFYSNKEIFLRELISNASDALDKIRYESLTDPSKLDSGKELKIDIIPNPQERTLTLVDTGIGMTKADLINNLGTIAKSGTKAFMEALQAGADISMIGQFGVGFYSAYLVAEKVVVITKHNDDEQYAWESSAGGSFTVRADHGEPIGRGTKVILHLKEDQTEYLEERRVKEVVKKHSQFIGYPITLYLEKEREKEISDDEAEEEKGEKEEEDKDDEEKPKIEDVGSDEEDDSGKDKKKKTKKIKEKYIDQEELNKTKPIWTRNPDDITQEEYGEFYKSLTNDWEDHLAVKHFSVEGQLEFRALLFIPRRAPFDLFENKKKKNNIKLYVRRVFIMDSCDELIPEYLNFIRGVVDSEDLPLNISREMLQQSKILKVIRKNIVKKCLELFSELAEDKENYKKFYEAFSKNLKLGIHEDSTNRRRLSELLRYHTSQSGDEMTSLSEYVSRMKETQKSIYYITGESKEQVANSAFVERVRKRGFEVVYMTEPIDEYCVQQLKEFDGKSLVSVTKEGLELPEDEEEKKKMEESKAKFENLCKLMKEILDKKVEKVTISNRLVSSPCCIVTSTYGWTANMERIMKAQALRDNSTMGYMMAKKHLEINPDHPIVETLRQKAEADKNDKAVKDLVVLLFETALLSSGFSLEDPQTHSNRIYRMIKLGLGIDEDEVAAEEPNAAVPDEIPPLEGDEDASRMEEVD
Procedure: RIPA lysates of xenograft tumor pieces were used for immunoprecipitation with 15 μg of HCAb1 and HCAb2. Immunoprecipitated HSP90β protein was detected on an immunoblot using commercial HSP90 antibody. […] Equal amounts of HCAb1 and HCAb2 were pulled down as detected by anti-mouse IgG antibody.
Xenograft tumor pieces were placed in 500 μL of 1% Triton™ X-100+0.1% SDS/PBS lysis buffer supplemented with 0.2 mM sodium orthovanadate and fresh protease inhibitor cocktail (1:100) and homogenized using polytron homogenizer for 30 sec −1 min on ice. Homogenates were spun at 14,000 rpm for 20 min at 4° C. and supernatants were used for immunoprecipitation.
We also wanted to determine if HCAb2 can bind to HSP90 from the xenograft tumor lysates. Xenograft tumor pieces were homogenized and incubated with exogenous HCAb1 and HCAb2. Immunoprecipitated proteins were detected using the commercial HSP90 antibody. […] In summary, we observed that HCAb2 bound preferentially to a small population of MDA-MB-231 xenograft tumor cells in comparison to the normal mouse tissues and also pulled down HSP90 from xenograft tumor lysates.

[3] = biological target: T3, Recombinant human HSP90β (human, UniProt P08238 1-724, limits assumed); assay: immunoprecipitation of recombinant HSP90β, immunoblot with commercial HSP90 antibody
T3 construct: Bought protein; also called heat shock protein HSP 90-beta; HSP90AB1
T3 sequence (P08238 whole entry): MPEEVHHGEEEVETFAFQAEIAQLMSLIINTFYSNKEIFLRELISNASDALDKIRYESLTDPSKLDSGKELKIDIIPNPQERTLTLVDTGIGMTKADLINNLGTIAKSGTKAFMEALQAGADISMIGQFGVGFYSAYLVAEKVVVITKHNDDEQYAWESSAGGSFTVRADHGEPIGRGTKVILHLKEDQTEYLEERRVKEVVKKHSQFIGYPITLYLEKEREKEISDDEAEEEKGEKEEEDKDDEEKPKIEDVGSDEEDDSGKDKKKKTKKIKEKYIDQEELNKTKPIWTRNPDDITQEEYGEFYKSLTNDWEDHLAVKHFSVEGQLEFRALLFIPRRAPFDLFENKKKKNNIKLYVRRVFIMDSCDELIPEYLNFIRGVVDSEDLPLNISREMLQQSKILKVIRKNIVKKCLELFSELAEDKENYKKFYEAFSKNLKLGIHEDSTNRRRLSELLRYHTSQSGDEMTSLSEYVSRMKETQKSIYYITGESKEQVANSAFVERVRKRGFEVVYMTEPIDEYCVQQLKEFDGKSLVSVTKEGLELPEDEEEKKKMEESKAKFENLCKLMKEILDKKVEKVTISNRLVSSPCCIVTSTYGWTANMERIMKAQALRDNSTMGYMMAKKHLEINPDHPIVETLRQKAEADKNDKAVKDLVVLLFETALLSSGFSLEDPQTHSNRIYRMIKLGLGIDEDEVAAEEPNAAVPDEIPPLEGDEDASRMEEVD
Procedure: FIGS. 4 A and B show a validation of the target antigens of HCAb1 and HCAb2. […] Immunoprecipitation of HSP90 was performed from cytosolic and plasma membrane (PM) fractions using HCAb2. The immunoprecipitated HSP90 was detected using a commercial HSP90 antibody. […] HCAb1 and HCAb2 (5 μg each) were used to immunoprecipitate recombinant HSP90β (1 μg) resuspended in either 1% Triton X-100+0.1% SDS or 1% Triton X-100+1% SDS buffers. The immunoprecipitated HSP90β protein was detected using a commercial HSP90 antibody. Equal amounts of HCAb1 and HCAb2 were pulled down as detected by anti-mouse IgG antibody.
The list of proteins identified for HCAb2 contained both HSP90α and HSP90β isoforms with HSP90β being the highest scoring protein (Table 2). […] Of the 45 peptides, 3 peptides were unique to HSP90α, while 15 peptides were unique to HSP90β and the remaining 27 peptides were common to both the isoforms. […] To test this, we used recombinant human HSP90β (highest scoring protein from Table 2) to determine the specificity of HCAb2. HCAb1 and HCAb2 were examined for their ability to immunoprecipitate HSP90β and the presence of HSP90β detected using the commercial HSP90 antibody. […] This interaction was abolished when the SDS concentration was elevated from 0.1% to 1%. […]

T1 sequence (Q00610 2-1675 limits assumed): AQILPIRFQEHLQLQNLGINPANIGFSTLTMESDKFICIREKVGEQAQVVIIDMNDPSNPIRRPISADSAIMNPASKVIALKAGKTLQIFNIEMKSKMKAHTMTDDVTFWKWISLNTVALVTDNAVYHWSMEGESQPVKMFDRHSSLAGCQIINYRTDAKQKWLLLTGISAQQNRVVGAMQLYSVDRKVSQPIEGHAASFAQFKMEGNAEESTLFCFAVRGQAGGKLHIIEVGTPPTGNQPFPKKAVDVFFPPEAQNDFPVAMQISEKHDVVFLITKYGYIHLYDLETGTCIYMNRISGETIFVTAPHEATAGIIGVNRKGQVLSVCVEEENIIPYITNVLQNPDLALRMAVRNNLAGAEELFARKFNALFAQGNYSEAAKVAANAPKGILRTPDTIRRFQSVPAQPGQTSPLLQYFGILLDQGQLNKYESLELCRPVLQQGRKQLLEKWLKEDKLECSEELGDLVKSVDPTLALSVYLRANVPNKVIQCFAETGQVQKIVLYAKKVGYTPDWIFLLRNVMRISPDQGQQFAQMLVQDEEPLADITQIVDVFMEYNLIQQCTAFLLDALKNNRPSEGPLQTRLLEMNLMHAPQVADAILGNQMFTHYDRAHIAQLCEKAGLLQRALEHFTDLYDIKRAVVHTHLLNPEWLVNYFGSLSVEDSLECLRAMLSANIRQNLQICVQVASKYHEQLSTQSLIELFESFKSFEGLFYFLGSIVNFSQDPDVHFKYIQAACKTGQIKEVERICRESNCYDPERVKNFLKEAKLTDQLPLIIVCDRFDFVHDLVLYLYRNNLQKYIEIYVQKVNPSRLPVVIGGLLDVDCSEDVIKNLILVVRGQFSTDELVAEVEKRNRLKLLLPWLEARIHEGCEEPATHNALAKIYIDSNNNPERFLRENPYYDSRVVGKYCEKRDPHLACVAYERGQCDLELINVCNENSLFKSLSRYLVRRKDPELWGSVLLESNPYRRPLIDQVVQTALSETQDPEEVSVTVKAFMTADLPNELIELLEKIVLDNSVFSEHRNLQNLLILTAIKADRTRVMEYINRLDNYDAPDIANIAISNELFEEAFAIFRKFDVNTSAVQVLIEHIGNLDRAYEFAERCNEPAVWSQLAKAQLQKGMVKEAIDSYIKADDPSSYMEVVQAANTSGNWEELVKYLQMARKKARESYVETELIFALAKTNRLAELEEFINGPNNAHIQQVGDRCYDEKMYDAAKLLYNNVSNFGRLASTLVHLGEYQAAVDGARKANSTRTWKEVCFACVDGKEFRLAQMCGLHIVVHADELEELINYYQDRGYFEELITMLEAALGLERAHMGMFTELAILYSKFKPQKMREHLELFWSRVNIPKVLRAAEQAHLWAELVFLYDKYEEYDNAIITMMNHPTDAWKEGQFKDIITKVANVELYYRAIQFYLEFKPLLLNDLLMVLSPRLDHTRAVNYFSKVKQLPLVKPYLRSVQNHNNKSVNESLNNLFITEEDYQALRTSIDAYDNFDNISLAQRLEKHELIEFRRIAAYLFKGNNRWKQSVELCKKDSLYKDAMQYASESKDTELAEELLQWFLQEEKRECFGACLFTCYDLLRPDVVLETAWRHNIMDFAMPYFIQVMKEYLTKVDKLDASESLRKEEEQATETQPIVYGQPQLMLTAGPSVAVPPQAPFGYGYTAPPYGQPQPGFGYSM

- binding result [1]: binds
- binding result [2]: no binding (tested: 15 µg of HCAb1)
- binding result [3]: no binding (tested: 1 µg HSP90β)
B1: HCAb1 (Fc fusion)
heavy: QVQLVQSGGGLVQPGGSLRLSCAASGFTFSSYAMSWVRQAPGKGLEWVSAISGSGGSTYYADSVKGRFTISRDNSKNTLYLQMNSLRAEDTAVYYCARQEGQWLVQIDYWGQGTLVTVSS
notes: Human VH fused to the mouse Fc domain, no light chain, bivalent; It served as the control antibody for HCAb2; also called heavy chain antibody 1; not shown: mouse Fc domain from vector pCMV6-AC-FC-S (OriGene), with any junction residues encoded by the PCR primers
